# Measurements: paper PMC2064084
# B1: E442Q Spastin (enzyme)
# chain: ESGAVPKRKDPLTHTSNSLPRSKTVMKTGSAGLSGHHRAPSYSGLSMVSGVKQGSGPAPTTHKGTPKTNRTNKPSTPTTATRKKKDLKNFRNVDSNLANLIMNEIVDNGTAVKFDDIAGQDLAKQALQEIVILPSLRPELFTGLRAPARGLLLFGPPGNGKTMLAKAVAAESNATFFNISAASLTSKYVGEGEKLVRALFAVARELQPSIIFIDQVDSLLCERREGEHDASRRLKTEFLIEFDGVQSAGDDRVLVMGATNRPQELDEAVLRRFIKRVYVSLPNEETRLLLLKNLLCKQGSPLTQKELAQLARMTDGYSGSDLTALAKDAALGPIRELKPEQVKNMSASEMRNIRLSDFTESLKKIKRSVSPQTLEAYIRWNKDFGDTTV
# Molecular target: GST–tubulin tails (ending in either Tyr or Glu)
# Test: pull-down
binder,measurement,value
B1,percent of the Spastin bound,25 to 33%
